In patent US20230025129A1 (KYMAB, published 2023):
Changes are numbered by the printed parent chain.

T1: mouse matriptase-2 ECD protein his tag (mouse, UniProt Q9DBI0 80-811)
T1 sequence: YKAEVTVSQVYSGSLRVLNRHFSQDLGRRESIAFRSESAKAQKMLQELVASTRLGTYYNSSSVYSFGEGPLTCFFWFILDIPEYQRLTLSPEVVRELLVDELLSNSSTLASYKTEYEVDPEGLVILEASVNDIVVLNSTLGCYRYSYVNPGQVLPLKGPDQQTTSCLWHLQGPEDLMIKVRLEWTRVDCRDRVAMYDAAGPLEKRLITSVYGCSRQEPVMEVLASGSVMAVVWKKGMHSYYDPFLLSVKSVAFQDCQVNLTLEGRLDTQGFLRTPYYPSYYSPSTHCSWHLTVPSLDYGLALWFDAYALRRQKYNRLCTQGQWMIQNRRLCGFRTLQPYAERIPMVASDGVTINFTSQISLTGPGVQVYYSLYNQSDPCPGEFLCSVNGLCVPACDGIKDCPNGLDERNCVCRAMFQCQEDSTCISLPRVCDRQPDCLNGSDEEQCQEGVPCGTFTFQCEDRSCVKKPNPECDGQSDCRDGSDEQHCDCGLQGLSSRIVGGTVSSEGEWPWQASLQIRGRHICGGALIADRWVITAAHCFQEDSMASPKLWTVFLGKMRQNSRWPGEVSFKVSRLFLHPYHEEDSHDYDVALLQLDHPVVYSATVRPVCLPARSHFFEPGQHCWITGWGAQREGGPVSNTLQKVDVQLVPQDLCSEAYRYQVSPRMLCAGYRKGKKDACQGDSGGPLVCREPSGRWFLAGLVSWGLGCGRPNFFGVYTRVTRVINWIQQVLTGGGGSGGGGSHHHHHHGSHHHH

T2: human matriptase-2 ECD protein his tag (human, UniProt Q8IU80 78-811)
T2 sequence: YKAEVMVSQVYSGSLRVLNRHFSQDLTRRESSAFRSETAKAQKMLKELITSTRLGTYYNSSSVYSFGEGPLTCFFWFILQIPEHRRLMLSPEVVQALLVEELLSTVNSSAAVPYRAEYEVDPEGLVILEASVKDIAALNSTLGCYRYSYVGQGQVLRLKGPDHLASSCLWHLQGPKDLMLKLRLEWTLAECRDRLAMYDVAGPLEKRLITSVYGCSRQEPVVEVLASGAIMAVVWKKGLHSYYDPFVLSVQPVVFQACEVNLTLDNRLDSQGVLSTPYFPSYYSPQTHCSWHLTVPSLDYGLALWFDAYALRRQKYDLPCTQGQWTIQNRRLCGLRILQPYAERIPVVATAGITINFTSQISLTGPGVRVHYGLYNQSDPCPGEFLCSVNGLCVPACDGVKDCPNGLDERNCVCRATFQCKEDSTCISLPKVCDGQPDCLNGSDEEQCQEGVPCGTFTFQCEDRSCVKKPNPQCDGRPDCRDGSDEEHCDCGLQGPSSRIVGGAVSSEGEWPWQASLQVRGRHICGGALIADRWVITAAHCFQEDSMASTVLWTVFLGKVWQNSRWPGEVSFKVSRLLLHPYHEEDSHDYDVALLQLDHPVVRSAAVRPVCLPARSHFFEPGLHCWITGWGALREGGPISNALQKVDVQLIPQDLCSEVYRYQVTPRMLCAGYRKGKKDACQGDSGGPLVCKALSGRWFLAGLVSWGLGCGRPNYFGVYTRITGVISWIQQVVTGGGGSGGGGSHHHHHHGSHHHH

T3: human MTP-2 expressed on HEK293 cells (human, UniProt Q8IU80 1-811)
T3 sequence: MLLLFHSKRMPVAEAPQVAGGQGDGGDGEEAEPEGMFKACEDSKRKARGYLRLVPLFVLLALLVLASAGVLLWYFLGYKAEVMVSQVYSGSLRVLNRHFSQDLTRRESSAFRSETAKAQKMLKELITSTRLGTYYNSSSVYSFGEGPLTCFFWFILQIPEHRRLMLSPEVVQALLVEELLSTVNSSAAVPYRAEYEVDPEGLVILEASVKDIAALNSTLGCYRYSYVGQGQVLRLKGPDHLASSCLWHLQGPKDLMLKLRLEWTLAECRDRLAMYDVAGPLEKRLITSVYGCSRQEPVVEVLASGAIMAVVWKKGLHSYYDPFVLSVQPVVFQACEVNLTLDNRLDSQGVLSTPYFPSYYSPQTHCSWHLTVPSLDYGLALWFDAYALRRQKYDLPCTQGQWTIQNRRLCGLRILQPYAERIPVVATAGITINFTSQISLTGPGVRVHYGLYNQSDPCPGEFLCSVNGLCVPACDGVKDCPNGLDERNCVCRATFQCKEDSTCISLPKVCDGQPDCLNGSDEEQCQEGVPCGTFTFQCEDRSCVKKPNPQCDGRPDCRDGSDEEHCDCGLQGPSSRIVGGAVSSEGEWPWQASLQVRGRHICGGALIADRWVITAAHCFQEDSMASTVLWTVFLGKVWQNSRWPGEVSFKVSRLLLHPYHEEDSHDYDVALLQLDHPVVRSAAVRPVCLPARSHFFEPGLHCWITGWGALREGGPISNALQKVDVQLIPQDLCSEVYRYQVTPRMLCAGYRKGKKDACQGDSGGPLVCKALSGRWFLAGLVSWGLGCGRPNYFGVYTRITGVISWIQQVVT

B1: NORI-020 (antibody, human IgG4 S228P, lambda, V domains shown)
VH: QLQLQESGPGLVKPAETLSLMCTVSGDSISSSHYFWGWIRQPPGKGLEWIGSMYYSGSTYYNPSLKSRVTISVDTSNNQFSLKLRSVTAADTAVYYCVRHNNWGLDNYFDYWGQGTLVTVSS
VL: SYELTQPPSVSVSPGQTARITCSADALPDQYAYWYQQKPGQAPLLVIYKDSERPSGIPERFSGSSSGTIVTLTIRGVQAEDEADYYCQSADSSGSYAVFGGGTKLTVLG
B2: NORI-017 (antibody, human IgG4 S228P, lambda, V domains shown)
VH: QVHLVESGGAVVQPGRSLRLSCAASGFTFSNFDMHWVRQTPGKGLEWVTIIRYDETNIYYTESVKGRFTTSRDNSKNTLYLQMNSLRVEDTAVYYCARGWTGSYVFDYWGQGALVTVSS
VL: QSVLTQPPSVSEAPRQRVTISCSGGSSNIGNNAVNWYQQVPGKAPKLLIHYDDLLPSGVSDRFSGSKSGTSASLAISGLQSEDEADYYCAAWDDSLNGVVFGGGTKLTVLG
B3: NORI-019 (antibody, human IgG4 S228P, lambda, V domains shown)
VH: QVQLVESGGGVVQPGRSLRLSCAASGFTFSNFDMHWVRQAPGKGLEWVAIISYDGSDKYYEDSVKGRFTISRDNSKNTLYLQMNSLRAEDTAIYYCAKDGYGSSLFDHWGQGTLVTVSS
VL: B2 VL with G25S, Y37F, V40L, K43E, A44V, H50Y, A91V, V100L
B4: NORI-001 (antibody, human IgG4 S228P, kappa, V domains shown)
VH: QVQLVQSGAEVKKPGASVKVSCKVSGYTLSEFSIHWVRQAPGKGLEWMGGFDPEKGKTIYAQKFQGRVTMTEDTSTDTAYMDLSSLRSEDTAVYYCVTEGHFYGSGVFDFWGQGTLVTVSS
VL: DIQMTQSPSSLSASVGDRVTITCRPSQGLRFDFGWYQQRPGKAPRRLIYAASILQSGVPSRFSGSGSGTEFTLTISSLQPEDFATYYCLQHNNYPWTFGQGTKVEIKR
B5: NORI-021 (antibody, human IgG4 S228P, lambda, V domains shown)
VH: QVQLVESGGGLVKPGGSLRLSCAAFGFTFSDYYMGWIRQAPGKGLEWVSHISSSGRTRYYADSVKGRFTISRDNAKNALYLQMDSLRAEDTAVFYCARAQLRYFDWLDYWGQGTLVTVSS
VL: QSVLTQPPSVSAAPGQKVTISCSGSGSNIGNNYVSWYQQVPGTAPKLLIYDNNKRPSGIPDRFSGSKSGTSATLGITGLQTGDEADYYCGTWDSSLSAGVFGGGTKLTVLG
B6: NORI-015 (antibody, human IgG4 S228P, lambda, V domains shown)
VH: EVQLVESGGGLIQAGRSLRLSCAASGFTFDEHVIYWVRQIPGKGLEWISSISWKSDIIAYADSVKGRFTISRDNAKNALYLQMNSLRAEDTALYYCAREKDGDFYYYYFAMDVWGQGTTVTVSS
VL: QSALTQPPSASGSPGQSVTISCTGTSSNVGYYNYVSWYQQHPGKAPKLMIYEVNKRPSGVPDRFSGSKSANTASLTVSGLQADDEADYYCSSYAGSNKVVFGGGTKLTVLG
B7: NORI-016 (antibody, human IgG4 S228P, lambda, V domains shown)
VH: B6 VH with I34M, S52T
VL: B6 VL
B8: NORI-005 (antibody, human IgG4 S228P, kappa, V domains shown)
VH: EVHLVESGGGLIKPGRSLRLSCTGSGFTFGDFGLSWFRQAPGKGLEWISFIRSKPYGGTTDYAASVKGRFTISRDDSKSVAYLQMNSLKTEDSAVYYCARNEILTGYYIFDYWGQGILVTVSS
VL: DIQMTQSPSSLSASLGDRLTITCQASQDISNYLSWYQLQPGKAPKLLIFDASILETGVPSRFSGSGSGTDFSFTVSSLQPEDIATYYCQQYDNLPLTFGGGTKVDLKR
B9: NORI-007 (antibody, human IgG4 S228P, kappa, V domains shown)
VH: EVQLVESGGGLVKPGRSLRLSCTGSGFTFGDFGMSWFRQAPGKGLEWVCFIRSKPYGGTTDYAPSVKGRFTISRDDSISIAYLQMNSLTTEDTAVYYCSRNDILTGYYIFDYWGQGTQVTVSS
VL: DIQMTQSPSSLSASLGDSITITCQASQDITNYLIWYQHKPGKAPKLLIFDASNLETGVPSRFSGSGSGTDFTFTISSLQPEDYATYYCQQYYNLPLTFGGGTKVDIKR
B10: NORI-002 (antibody, human IgG4 S228P, kappa, V domains shown)
VH: B9 VH with K67R, T71S, I78K, S79G, A81V, T89R, D102E, Q118L
VL: B9 VL with S18R, I19V, Q27H, H38Q, K45R, N53I, Y83F
B11: NORI-004 (antibody, human IgG4 S228P, kappa, V domains shown)
VH: B9 VH with G68D, I78K, S79D, A81V, T89R, D102E, Q118L
VL: B9 VL with S18R, I19V, Q27H, H38Q, K45R, N53I, Y83F
B12: NORI-018 (antibody, human IgG4 S228P, lambda, V domains shown)
VH: QLQLVQSGAEVKKPGASVKVSCKASGYTFTTFGIVWVRQAPGQGLEWMGWISGYNGNTKYAQNLQGRVTMTTDTSTSTAYMELRSLRSDDTAIYYCARDRAIAPRFDPWGQGTLVTVSS
VL: SYELTQPPSVSVSPGQAASIPCSGDNLGDNFACWYQQKPGQSPVLVIYQDSKRPSGIPERFSGSNSGNTATLTINGTQAMDEADYYCQAWDSSTVVFGGGTKLTVLG

target: T1, mouse matriptase-2 ECD protein his tag; experiment: cell-based or functional assay

| Binder | Inhibition enzymatic activity mouse MTP2 protein (IC50) [nM] |
| --- | --- |
| B1 | 1.44 |
| B2 | 0.489 |
| B3 | 0.911 |
| B4 | 12.4 |
| B5 | 1.9 |
| B6 | 5.7 |
| B7 | 9.27 |
| B8 | 12.7 |
| B9 | 39.3 |
| B10 | 16.2 |
| B11 | 22.4 |
| B12 | 0.589 |

target: T2, human matriptase-2 ECD protein his tag; experiment: cell-based or functional assay

| Binder | Inhibition enzymatic activity human MTP2 protein (IC50) [nM] |
| --- | --- |
| B1 | 1.72 |
| B2 | 1.51 |
| B3 | 1.54 |
| B4 | 10.1 |
| B5 | 2.71 |
| B6 | 5.51 |
| B7 | 10.4 |
| B8 | 5.95 |
| B9 | 8.79 |
| B10 | 8.53 |
| B11 | 5.9 |
| B12 | 2.12 |

target: T3, human MTP-2 expressed on HEK293 cells; experiment: cell-based or functional assay

| Binder | Inhibition enzymatic activity human MTP2 on cells (IC50) [nM] |
| --- | --- |
| B1 | 0.146 |
| B2 | 0.198 |
| B3 | 0.0978 |
| B5 | 8.21 |
| B12 | 2.22 |
